# Patent publication US9822149B2, “Polypeptide having multiple directionality and self-assembled nanostructure containing the same” (INDUSTRY-ACADEMIC COOPERATION FOUNDATION, YONSEI UNIVERSITY, priority 2014, dated 2017)
# Non-standard residues stand in square brackets, D forms with d. No end group written: not given here. ebes = not defined here
# Key:
# Format in all cases: physicochemical
# [1] = Transmission electron microscopy (TEM) of negatively stained aggregate
# Source text: The insert is an enlarged image.
# [2] = Small-angle X-ray scattering (SAXS) of polypeptide in solution
# Description: The black circles represent experimental data and the red line represents X-ray scattering data of the most likely model obtained using DAMMIF.
# As shown in FIG. 10 and FIG. 11, a form factor (P(q)) and an electron pair distance distribution function p(r) were obtained to investigate the shape and size of the polypeptide prepared in Example 2 (ODβ-S).
# For the polypeptide prepared in Example 2 (ODβ-S), Rg,p(r) was calculated to be 11.01±0.078 Å and Dmax was calculated to be 34.0 Å.
# [3] = Diffusion-ordered spectroscopy (DOSY) in solution
Substance,aggregate morphology [1],aggregation state [2],Dmax ([2]; from p(r)) [Å],"Rg,p(r) ([2]; from p(r) using GNOM) [Å]",D (diffusion coefficient) [3],hydrodynamic radius R(H) [3] [Å]
Comparative Example 2: comparative naturally directed β-α-β polypeptide WKWEWYWKWEW-GSGS-A(EAAAK)2A-GS-... (SEQ ID NOS 13 and 3) (chain 1 WKWEWYWKWEWGSGSAEAAAKEAAAKAGSK; chain 2 WEWKWYWEWKW; also: chain 2 joined at Lys30 side chain (εK branch)),forms a heterogeneous structure and exists mainly as large-sized aggregates,–,–,–,–,–
"Example 2: short polypeptide WKWEW-GSGS-(ebes)GS-εK- with oppositely directed WEWKW (SEQ ID NOS 9 and 10) (chain 1 WKWEWGSGS[ebes]GSK; numbers in words are those of the source; reading uncertain; also: K12 εK branch carrying oppositely directed WEWKW strand (chain 2), printed as WKWEW-GSGS-(ebes)GS-εK-)",–,exists as monomers rather than as aggregates,34.0,11.01±0.078,1.625×10^−10 m^2/s,12.27
